Data: US20220251171A1, “APOLIPOPROTEIN E FRAGMENTS” (EISAI R&D MANAGEMENT CO., LTD., priority 2019, published 2022)

B1: 198-299: C-terminal fragment consisting of amino acids 198-299 of human ApoE (SEQ ID NO: 3) (protein)
chain: LAGQPLQERAQAWGERLRARMEEMGSRTRDRLDEVKEQVAEVRAKLEEQAQQIRLQAEAFQARLKSWFEPLVEDMQRQWAGLVEKVQAAVGTSAAPVPSDNH
B2: 200-299: C-terminal fragment consisting of amino acids 200-299 of human ApoE (SEQ ID NO: 1) (protein)
chain: GQPLQERAQAWGERLRARMEEMGSRTRDRLDEVKEQVAEVRAKLEEQAQQIRLQAEAFQARLKSWFEPLVEDMQRQWAGLVEKVQAAVGTSAAPVPSDNH
B3: 199-299: C-terminal fragment consisting of amino acids 199-299 of human ApoE (SEQ ID NO: 2) (protein)
chain: AGQPLQERAQAWGERLRARMEEMGSRTRDRLDEVKEQVAEVRAKLEEQAQQIRLQAEAFQARLKSWFEPLVEDMQRQWAGLVEKVQAAVGTSAAPVPSDNH

Columns and labels:
rat hippocampal neurons = assay: CytoTox-Glo Cytotoxicity Assay of treated rat hippocampal neurons; format: cell-based; settings: conditioned medium of treated rat hippocampal neurons, 14 DIV; FIG. 14B
Method: (§1) Cell culture: The dissected hippocampi from fetuses obtained on embryonic day (E) 18 from timed pregnant Wistar rats (Charles River Laboratories) were digested using trypsinization and mechanical dissociation. The dissociated neurons were seeded at 1.0×10^5 cells/well in 24-well plate (Falcon). Infection of AAV-DJ with full-length human ApoE4 was performed at 7 days in vitro (DIV). 4-{4-[2-(3-methyl-4-oxo-3,4-dihydro-phthalazin-1-yl)-acetylamido]-benzyl}-piperazine-1-carboxylic acid tert-butyl ester (hereinafter also referred to as PH-002) (Merck) was treated at 4 days after infection (11 DIV). Sample collection for western blot and cytotoxicity analysis was performed at 7 days after infection (14 DIV).
Cytotoxicity analysis: Cytotoxicity of treated compound was evaluated by CytoTox-GIo™ Cytotoxicity Assay (Promega). In brief, 50 uL of conditioned medium and 50 uL of prepared CytoTox-GIo™ Cytotoxicity Assay reagent were mixed in 96-well white-walled plate (Sumitomo Bakelite). After incubation at room temperature for 15 min, luminescence was measured by SpectraMax iD5 (Molecular Devices).

[1] = tested on: neurotoxic 12 kDa ApoE fragment; assay: Western blot analysis of 12 kDa ApoE fragment production in rat hippocampal neurons expressing full-length human ApoE4; format: cell-based; settings: rat hippocampal neurons infected with AAV-DJ full-length human ApoE4; treated at 11 DIV, collected at 14 DIV; concentration dependent; FIG. 14A
Method: as §1
Western blot analysis: Cells were lysed by RIPA buffer (50 mM Tris-HCl pH 7.6, 5 mM EDTA, 1 mM EGTA, 1% NP40, 0.25% sodium deoxycholate, 0.1 M NaCl, 0.5 mM PMSF) containing complete (EDTA-free) protease inhibitor cocktail (Roche) and PhosSTOP protein phosphatase inhibitor (Sigma), and sonicated. Sample Buffer Solution with Reducing Reagent (6×) (Nacalai Tesque) was added before SDS-PAGE. For SDS-PAGE, XV PANTERA MP Gel (DRC) 15% was used. For transfer, Trans-Blot Turbo (BIO-RAD) was used. For immunoblotting, iBind Western Systems (ThermoFisher Scientific) was used together with anti-ApoE PA5-27088 antibody (ThermoFisher Scientific). For detection, Fusion FX7 (Vilber Lourmat) was used.

[2] = literature, Chang et al.; cited from earlier work
[3] = tested on: rat primary hippocampal neurons; assay: Mitochondrial respiration measurement (spare respiratory capacity) in AAV6-infected rat hippocampal neurons; format: cell-based; settings: 7 days after AAV6 infection (14 DIV), FIG. 13B
Method: For assays using rat hippocampal neurons, the dissected hippocampi from fetuses obtained on embryonic day (E) 18 from timed pregnant Wistar rats (Charles River Laboratories) were digested using trypsinization and mechanical dissociation. The dissociated neurons were seeded at 1.5×10^4 cells/well in Seahorse XF96 cell culture microplate (Agilent Technologies) for mitochondrial respiration measurement or 1.0×10^5 cells/well in 24-well plate (Falcon) for Western blot analysis. Infection of AAV6 with full-length human ApoE4 or identified ApoE fragments (198-299, 199-299, 200-299) was performed at 7 days in vitro (DIV). Measurement of mitochondrial respiration or sample collection for Western blot analysis was performed at 7 days after infection (14 DIV).
(§2) Mitochondrial respiration measurement: Real-time measurement of oxygen consumption rates (OCR) was performed using an Extracellular Flux Analyzer XFe96 (Agilent Technologies). Before measurement, the culture medium was replaced by 37° C. pre-warmed XF Base Medium (Agilent Technologies) containing 10 mM sodium pyruvate (Sigma), 10 mM D-glucose (Sigma), 2 mM glutamine (Sigma). The pH of the measurement medium was adjusted to 7.4. The culture plates were incubated at 37° C. for 60 min prior to the assay. For analysis of mitochondrial function, XF Cell Mito Stress Test Kit (Agilent Technologies) was used. Following measurement of basal OCR, mitochondrial complex inhibitors were injected sequentially into each cell. The inhibitors were used at the following concentrations: oligomycin 1 μM; carbonyl cyanide 4-(trifluoromethoxy)phenylhydrazone (FCCP) 0.25 μM for Neuro2A cells, 2 μM for rat hippocampal neurons; rotenone/antimycin A 0.5 μM. OCR values were automatically calculated, recorded and plotted by the XFe96 software. Spare respiratory capacity was measured as (FCCP respiration—basal respiration).

Neuro2A cells = assay: Mitochondrial respiration measurement (spare respiratory capacity) in vector-transfected Neuro2A cells; format: cell-based; settings: Neuro2A cells expressing the fragment; FCCP respiration minus basal respiration; FIG. 13A
Method: Cell culture: Neuro2A cells (ATCC) were seeded at 5.0×10^4 cells/well in a 24 well plate (Falcon) and cultured in D-MEM High Glucose (WAKO) containing 10% fetal bovine serum. Transfection of pAAV-CMV vectors encoding human ApoE4 (full-length) or the identified ApoE fragments (198-299, 199-299, 200-299) was done using Lipofectamine LTX and Plus Reagent (Invitrogen) on 1 day after seeding. 2 days later, vector-transfected cells were collected for Western blot analysis or seeded again at 2.0×10^4 cells/well in a Seahorse XF96 cell culture microplate (Agilent Technologies) 4 hours before mitochondrial respiration measurement.
as §2

Aβ = settings: literature, Pillot et al.; artificially-generated fragment; cited from earlier work

Molecule	spare respiratory capacity [3]	spare respiratory capacity (Neuro2A cells)	other results
Cn1nc(CC(=O)Nc2ccc(CN3CCN(C(=O)OC(C)(C)C)CC3)cc2)c2ccccc2c1=O [PH-002, 4-{4-[2-(3-methyl-4-oxo-3,4-dihydro-phthalazin-1-yl)-acetylamido]-benzyl}-piperazine-1-carboxylic acid tert-butyl ester]	–	–	cytotoxicity (rat hippocampal neurons): no cytotoxicity; amount of neurotoxic 12 kDa ApoE fragment [1]: reduction in the amount of neurotoxic 12 kDa ApoE fragment
ApoE4(1-299): full-length ApoE4	–	–	mitochondrial dysfunction and neurotoxicity [2]: did not bring about these effects
B1	reduction in spare respiratory capacity	reduction in spare respiratory capacity	–
B2	reduction in spare respiratory capacity	reduction in spare respiratory capacity	inhibition of the fusogenic properties of Aβ (Aβ): able to inhibit the fusogenic properties of Aβ
B3	reduction in spare respiratory capacity	reduction in spare respiratory capacity	–
